Laboratory results published in patent US20150064184A1.

Experiments:
[1] = target: human insulin receptor extracellular domain (HIR ECD) (human) (UniProt P06213); assay: ELISA, HIR ECD plated (second experiment)
[2] = target: human insulin receptor extracellular domain (HIR ECD) (human) (UniProt P06213); assay: ELISA, HIR ECD plated; compared with the HIR Ab

Substance “GUSB-HIR Ab fusion protein (human GUSB fused to the amino terminus of the HIR Ab heavy chain) (from UniProt P08236 23-633) (antibody)” has an EC50 [1] of 4.8 nM and a reduction in receptor binding affinity against the HIR Ab [2] of 95%.
